Results as given in the DeepSol protein solubility set.

Assay: soluble on expression in E. coli; label from the status in PepcDB or PDB records

| Sequence | soluble on expression in E. coli |
| --- | --- |
| MESIEQQLTELRTTLRHHEYLYHVMDAPEIPDAEYDRLMRELRELETKHPELITPDSPTQRVGAAPLAAFSQIRHEVPMLSLDNVFDEESFLAFNKRVQDRLKNNEKVTWCCELKLDGLAVSILYENGVLVSAATRGDGTTGEDITSNVRTIRAIPLKLHGENIPARLEVRGEVFLPQAGFEKINEDARRTGGKVFANPRNAAAGSLRQLDPRITAKRPLTFFCYGVGVLEGGELPDTHLGRLLQFKKWGLPVSDRVTLCESAEEVLAFYHKVEEDRPTLGFDIDGVVIKVNSLAQQEQLGFVARAPRWAVAFKFPAQEQMTFVRDVEFQVGRTGAITPVARLEPVHVAGVLVSNATLHNADEIERLGLRIGDKVVIRRAGDVIPQVVNVVLSERPEDTREVVFPTHCPVCGSDVERVEGEAVARCTGGLICGAQRKESLKHFVSRRAMDVDGMGDKIIDQLVEKEYVHTPADLFKLTAGKLTGLERMGPKSAQNVVNALEKAKETTFARFLYALGIREVGEATAAGLAAYFGTLEALEAASIEELQKVPDVGIVVASHVHNFFAEESNRNVISELLAEGVHWPAPIVINAEEIDSPFAGKTVVLTGSLSQMSRDDAKARLVELGAKVAGSVSKKTDLVIAGEAAGSKLAKAQELGIEVIDEAEMLRLLGS | soluble |
| MSNARIGIDMSKIYAPKSIDLSSFQLPDEKLQTKYGLPHKVEFCKSCVISNQRPNSAVEYEHKKESKKHTIHFDDEGICDACRVAERKKSTINWEERDRQLRELCDRFRSKDGSYDCVVPGSGGKDSFYAAHILKYKYGMNPLTVTWAPHMYTPWGWRNFQSWIHAGFDNHLFTPNGRVHRLLTRLAVENLFHPFQPFMIGQKAYAPKMALLHKIKLVVYGENEAEYGNPIGDTESAKRDWKYFTADDKSKIFLGGTSVQELKSDFGLNDNDLDAYLPADPQQIEEQQVEVHYLGYYLKWHPQSCYYYSVEHGGFEASPERTPGTYSKYNSIDDKIDDFHYYTTLTKFGIGRATYDASQEIRSGDITVEEGVALVKRFDQEFPERFAEEIFKYLSINLKEFPIASQMFEQPIMDRAYFMALADTFRSPHLWKKDGEQWKLRHQVTNLEKTKAEYLDLETV | not soluble |
| MKTALESLRNASALYNEKLVKLMKSFGMTIAEHRLLLLIESGLDTQEKISLATKLDTSTLSRQLKSAVRKELLDKLATGRDKRQLIYSVTEKGQSDLKGIAAELARIDANVFSDWNQNDRALLDQLLDKLEKSI | not soluble |
| MSLIASIGELLIDLISVEEGDLKDVRLFEKHPGGAPANVAVGVSRLGVKSSLISKVGNDPFGEYLIEELSKENVDTRGIVKDEKKHTGIVFVQLKGASPSFLLYDDVAYFNMTLNDINWDIVEEAKIVNFGSVILARNPSRETVMKVIKKIKGSSLIAFDVNLRLDLWRGQEEEMIKVLEESIKLADIVKASEEEVLYLENQGVEVKGSMLTAITLGPKGCRLIKNETVVDVPSYNVNPLDTTGAGDAFMAALLVGILKLKGLDLLKLGKFANLVAALSTQKRGAWSTPRKDELLKYKEAREVLAEGHHHHHH | soluble |
| MGSDKIHHHHHHMTTTSTPGLFERPITLPDADAQSRLAKLVGMDDKIRRLSNVLAVLINPAGLKEWLDQHHAHSTGLLDAVLRRPPLVVLSGDVGSGKTELAETIGDMVARQEGIDITLLPLSLSSRGQGRVGEMTQLVSAAFDHAFHEASKVKSSRGSRSRGGVILLVDEADALAQSREADQMHHEDRAGVNAFIRGIDRLANGHLPAAVLMCTNRLNALDPAVRRRAADILVFERPDEAQRLEVLHRRLGDAGFGKADLQSLVAATGEQAKRPYGFTYSDLTQRLLPAIVLDAYPQGPIKPSRAIELARAMAPTPPFKDSTARGC | not soluble |
| MAHHHHHHMENLYFQGMSSFLPEGGCYELLTVIGKGFEDLMTVNLARYKPTGEYVTVRRINLEACSNEMVTFLQGELHVSKLFNHPNIVPYRATFIADNELWVVTSFMAYGSAKDLICTHFMDGMNELAIAYILQGVLKALDYIHHMGYVHRSVKASHILISVDGKVYLSGLRSNLSMISHGQRQRVVHDFPKYSVKVLPWLSPEVLQQNLQGYDAKSDIYSVGITACELANGHVPFKDMPATQMLLEKLNGTVPCLLDTSTIPAEELTMSPSRSVANSGLSDSLTTSTPRPSNGDSPSHPYHRTFSPHFHHFVEQCLQRNPDARPSASTLLNHSFFKQIKRRASEALPELLRPVTPITNFEGSQSQDHSGIFGLVTNLEELEVDDWEF | soluble |
| MAHHHHHHMRSNRNGSHSFFFLSVYSWFIFSPFEVFDDEYFLVDEKEKYVFLFVFVFMEEKRICVVVFPVPKVHAAAEIVIVDAVLFPHAADTDELKLCHF | not soluble |
| MSLNLTVSDVVELMGDAVVQTGEASLQTQPVEWVSVIETPVENFVRENELVLTTGIGCGEDEERFLQFVHDIAASNAAALAIAMGRFVKHIPDRVLHYASTHGLILLEIPWELRFADLIQSVLLQMEQRKQKEIEQAESLRKQLLEMEGHHHHHH | soluble |
| MGSDKIHHHHHHMLERTTRHVRPSLDGQAFYERCTQILSELDDAESSLRNVIAQPRGLLRVDLSGAHATKIVLPNIDQFHELYPDIELVISTGDRLVDLIREGIDCVVRAGRLDDSTLIARHLVDMPQVICASPDYLNKHGTPEQPEDLLSHYCVNFFSTSGGRNYPFELMVNGKKQDYFLKSWIAVNDAENYVLSALQGAGLIQVPHYHVANELKNGRLVEVLSEWESPKMSVSALYPQHRQLSPRVRVFVAWLSELYTGYFANFEYPQK | not soluble |
| MGSDKIHHHHHHMVKNNNIAVKVEHVSKSFKLPTESSQSLRTTLVNLFKGIKGYVEYNVLQDISFEVEKGDFFGIVGRNGSGKSTLLKILSQIYVPERGTVAVDGKLVSFIELGVGFNPELTGKENVYLNGAMLGFTAEEIDAMYDDIVEFAELSEFMNQKLKNYSSGMQVRLAFSVAIKAQGDILILDEVLAVGDEAFQRKCNDYFLERKKSGKTTILVTHDMGAVKKYCNKALLIEKGYVKALGEPDDVANQYSFDNVLASISEVTENEEPLHQSDIVKDLQINLVSKNQIEPDESIEIEFRYTVLEDIETHVAFTFLDLERHFDVYNDNSMDLKTFGKGEKFFRVKCKLPSINQAKLKMAVSVRNSNKQPLLFAKTSDTPAIFISRKFSTDNIAEEDAATGFIQRNSQWELLD | not soluble |
| MSEPSNNSEKVPDEVQEIRDAENTFNSIQRCTTTLKGFQKSYDELKLQRKQSLQTIRQHEADIQQLEQGIRVHTAAFQLLRRLLSEIRRPNQILQEALQARHIEIEAFDDEAERLNVLIVEERRNLVELQAARKIRKSYLIVFQKQIAQLKAENKDEEATPAQEQMTKKSLKRRRDDEDDETGPSARRAPNSVGAF | soluble |
| MGSDKIHHHHHHKIKQTAGRDQLGTFAPKFAELNDDILFGEVWSRTEQLGLRDRSLVTITSLISQGITDSSLTFHLQSAKNNGITRTEIAEIITHIGFYAGWPKAWAAFRLAKEVWNEDISCKDKDEKTTFQREMIFPIGEPNTAYAQYFTGNSYLAPISREQASISNVTFEPRCRNNWHIHHATQGGGQMLIGIAGRGWYQEEGKAAVEILPGTVIHIPANVKHWHGAAANSWFAHLAFELSGENTSNEWLEPVTDEEYDKIQMLP | not soluble |
| MQTQKPVFSEVTVHDPSIIKANGTYYVFGSHLASAKSTDLMNWTQISSSVHDGNPLIPNVYEELKETFEWAESDTLWAPDVTQLEDGKFYMYYNACRGDSPRSALGLAVADDIEGPYKNKGIFLKSGMDGISNDGTPYDATKHPNVVDPHTFFDQNGKLWMVYGSYSGGIFILEMDKKTGFPLPGQGYGKKLIGGNHSRIEGAYILYHPETQYYYLYMSFGGLAADGGYNIRVARSKNPDGPYYDAEGHAMIDVRGKEGTLFDDRSIEPYGVKLMGNFSFNNKNGYVSPGHNSAFYDEKSGKSYLIFHTRFPGRGEEHEVRVHQLLMNKQGWPVVAPHRYAGEKLEKVKKSDVIGDYELVRHGKDISADIKESKEIRLNQNGKITGAVAGTWKNTGHNKIELKIDGKTYDGVFLRQWDAASERKVMTFSALSREGDAVWGSSLKRAEFLEHHHHHH | soluble |
| EGNITTVYFRSRDITAQKIAEKVLLDNERKLKTVYENSIQFLTVLDLDRKFIWFNKNARDRSPAVFGKDLIVGEVAESYIAKEYRTGFVENFNKAVAGETITYTRKYALNNAPFFLELSLAPVYNNDNTVVGVALTGIN | not soluble |
| MFKNEDAKATGTSEMAPALVAAFGGKENITNLDACITRLRVSVADVSKVDQAGLKKLGAAGVVVAGSGVQAIFGTKSDNLKTEMDEYIRNFGSRSHHHHHH | soluble |
